Results taken from patent publication EP2170953B1.

Experiments:
[1] = biological target: Aβ1-42 peptide, monomer-enriched preparation; test: ELISA assay 1, Ab 1:1 of 0.5 µg/ml
[2] = biological target: Aβ1-42 peptide, oligomer-enriched preparation; test: ELISA assay 1, Ab 1:1 of 0.5 µg/ml
[3] = biological target: Aβ1-42 peptide, monomer-enriched preparation; test: ELISA assay 1, Ab 1:2 of 0.5 µg/ml
[4] = biological target: Aβ1-42 peptide, oligomer-enriched preparation; test: ELISA assay 1, Ab 1:2 of 0.5 µg/ml
[5] = biological target: Aβ1-42 peptide, oligomer-enriched preparation; test: ELISA assay 1, Ab 1:4 of 0.5 µg/ml
[6] = biological target: Aβ1-42 peptide, monomer-enriched preparation; test: ELISA assay 1, Ab 1:8 of 0.5 µg/ml
[7] = biological target: Aβ1-42 peptide, oligomer-enriched preparation; test: ELISA assay 1, Ab 1:8 of 0.5 µg/ml
[8] = biological target: Aβ1-42 peptide, monomer-enriched preparation; test: ELISA assay 2, Ab 1:1 of 0.5 µg/ml
[9] = biological target: Aβ1-42 peptide, oligomer-enriched preparation; test: ELISA assay 2, Ab 1:1 of 0.5 µg/ml
[10] = biological target: Aβ1-42 peptide, monomer-enriched preparation; test: ELISA assay 2, Ab 1:2 of 0.5 µg/ml
[11] = biological target: Aβ1-42 peptide, oligomer-enriched preparation; test: ELISA assay 2, Ab 1:2 of 0.5 µg/ml
[12] = biological target: Aβ1-42 peptide, monomer-enriched preparation; test: ELISA assay 2, Ab 1:4 of 0.5 µg/ml
[13] = biological target: Aβ1-42 peptide, oligomer-enriched preparation; test: ELISA assay 2, Ab 1:4 of 0.5 µg/ml
[14] = biological target: Aβ1-42 peptide, oligomer-enriched preparation; test: ELISA assay 2, Ab 1:8 of 0.5 µg/ml
[15] = biological target: Aβ1-42 peptide, monomer-enriched preparation; test: ELISA assay 3, Ab 1:1 of 0.5 µg/ml
[16] = biological target: Aβ1-42 peptide, oligomer-enriched preparation; test: ELISA assay 3, Ab 1:1 of 0.5 µg/ml
[17] = biological target: Aβ1-42 peptide, monomer-enriched preparation; test: ELISA assay 3, Ab 1:2 of 0.5 µg/ml
[18] = biological target: Aβ1-42 peptide, oligomer-enriched preparation; test: ELISA assay 3, Ab 1:2 of 0.5 µg/ml
[19] = biological target: Aβ1-42 peptide, monomer-enriched preparation; test: ELISA assay 3, Ab 1:4 of 0.5 µg/ml
[20] = biological target: Aβ1-42 peptide, oligomer-enriched preparation; test: ELISA assay 3, Ab 1:4 of 0.5 µg/ml
[21] = biological target: Aβ1-42 peptide, oligomer-enriched preparation; test: ELISA assay 3, Ab 1:8 of 0.5 µg/ml
[22] = biological target: Aβ1-42 peptide, monomer-enriched preparation; test: ELISA assay 1, Ab 1:16 of 0.5 µg/ml
[23] = biological target: Aβ1-42 peptide, oligomer-enriched preparation; test: ELISA assay 1, Ab 1:16 of 0.5 µg/ml
[24] = biological target: Aβ1-42 peptide, monomer-enriched preparation; test: ELISA assay 1, Ab 1:32 of 0.5 µg/ml
[25] = biological target: Aβ1-42 peptide, oligomer-enriched preparation; test: ELISA assay 1, Ab 1:32 of 0.5 µg/ml
[26] = biological target: Aβ1-42 peptide, monomer-enriched preparation; test: ELISA assay 1, Ab 1:64 of 0.5 µg/ml
[27] = biological target: Aβ1-42 peptide, oligomer-enriched preparation; test: ELISA assay 1, Ab 1:64 of 0.5 µg/ml
[28] = biological target: Aβ1-42 peptide, monomer-enriched preparation; test: ELISA assay 2, Ab 1:16 of 0.5 µg/ml
[29] = biological target: Aβ1-42 peptide, oligomer-enriched preparation; test: ELISA assay 2, Ab 1:16 of 0.5 µg/ml
[30] = biological target: Aβ1-42 peptide, monomer-enriched preparation; test: ELISA assay 2, Ab 1:32 of 0.5 µg/ml
[31] = biological target: Aβ1-42 peptide, oligomer-enriched preparation; test: ELISA assay 2, Ab 1:32 of 0.5 µg/ml
[32] = biological target: Aβ1-42 peptide, monomer-enriched preparation; test: ELISA assay 2, Ab 1:64 of 0.5 µg/ml
[33] = biological target: Aβ1-42 peptide, oligomer-enriched preparation; test: ELISA assay 2, Ab 1:64 of 0.5 µg/ml
[34] = biological target: Aβ1-42 peptide, monomer-enriched preparation; test: ELISA assay 3, Ab 1:16 of 0.5 µg/ml
[35] = biological target: Aβ1-42 peptide, oligomer-enriched preparation; test: ELISA assay 3, Ab 1:16 of 0.5 µg/ml
[36] = biological target: Aβ1-42 peptide, monomer-enriched preparation; test: ELISA assay 3, Ab 1:32 of 0.5 µg/ml
[37] = biological target: Aβ1-42 peptide, oligomer-enriched preparation; test: ELISA assay 3, Ab 1:32 of 0.5 µg/ml
[38] = biological target: Aβ1-42 peptide, monomer-enriched preparation; test: ELISA assay 3, Ab 1:64 of 0.5 µg/ml
[39] = biological target: Aβ1-42 peptide, oligomer-enriched preparation; test: ELISA assay 3, Ab 1:64 of 0.5 µg/ml
[40] = biological target: Aβ1-42 peptide, high molecular weight (HMW) proto-fibrillar (PF) oligomer enriched preparation (human); test: ELISA on coated fraction, Ab 1 µg/ml
[41] = biological target: Aβ1-42 peptide, low molecular weight (LMW) monomer preparation (human); test: ELISA on coated fraction, Ab 1 µg/ml
[42] = biological target: Aβ1-42 peptide, monomer-enriched preparation; test: ELISA assay 1, Ab 1:128 of 0.5 µg/ml

Aβ1-42 peptide, oligomer-enriched preparation, sequence (peptide, as listed by the source, form in doubt): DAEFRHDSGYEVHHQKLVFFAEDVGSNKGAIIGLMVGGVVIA
Aβ1-42 peptide, monomer-enriched preparation, sequence (peptide, as listed by the source, form in doubt): as above
Aβ1-42 peptide, high molecular weight (HMW) proto-fibrillar (PF) oligomer enriched preparation (human), sequence (peptide, as listed by the source, form in doubt): as above
Aβ1-42 peptide, low molecular weight (LMW) monomer preparation (human), sequence (peptide, as listed by the source, form in doubt): as above

O.D. [1]: 3.67 O.D. | O.D. [2]: 3.36 O.D. | O.D. [3]: 3.3 O.D. | O.D. [4]: 3.39 O.D. | O.D. [5]: 3.1 O.D. | O.D. [6]: 2.67 O.D. | O.D. [7]: 2.73 O.D. | O.D. [8]: 3.77 O.D. | O.D. [9]: 3.67 O.D. | O.D. [10]: 3.48 O.D. | O.D. [11]: 3.55 O.D. | O.D. [12]: 3.29 O.D. | O.D. [13]: 3.37 O.D. | O.D. [14]: 2.99 O.D. | O.D. [15]: 4.04 O.D. | O.D. [16]: 3.89 O.D. | O.D. [17]: 4 O.D. | O.D. [18]: 3.83 O.D. | O.D. [19]: 3.52 O.D. | O.D. [20]: 3.64 O.D. | O.D. [21]: 3.23 O.D. | O.D. [22]: 1.78 O.D. | O.D. [23]: 1.78 O.D. | O.D. [24]: 1.18 O.D. | O.D. [25]: 1.27 O.D. | O.D. [26]: 0.81 O.D. | O.D. [27]: 0.93 O.D. | O.D. [28]: 1.94 O.D. | O.D. [29]: 1.92 O.D. | O.D. [30]: 1.34 O.D. | O.D. [31]: 1.3 O.D. | O.D. [32]: 0.94 O.D. | O.D. [33]: 0.88 O.D. | O.D. [34]: 2.23 O.D. | O.D. [35]: 2.07 O.D. | O.D. [36]: 1.54 O.D. | O.D. [37]: 1.4 O.D. | O.D. [38]: 1.08 O.D. | O.D. [39]: 0.95 O.D. | O.D. [40]: 2.55 O.D. | O.D. [41]: 2.68 O.D. | O.D. [42]: 0.64 O.D.
Substance: 6E10 control antibody
